B1: NGF: Nerve growth factor; murine NGF (Promega) used as positive control (protein, UniProt P01139 122-241, looked up)
Beta-nerve growth factor: SSTHPVFHMGEFSVCDSVSVWVGDKTTATDIKGKEVTVLAEVNINNSVFRQYFFETKCRASNPVESGCRGIDSKHWNSYCTTTHTFVKALTTDEKQAAWRFIRIDTACVCVLSRKATRRG
modifications: Beta-nerve growth factor
notes: Nerve growth factor; murine NGF (Promega) used as positive control

Experiments:
[1] = test system: PC12 cells; test: PC12 bioassay of neurite outgrowth with astrocyte-conditioned medium; format: cell-based; details: 24 h
Description: To evaluate neurite outgrowth, PC12 cells were plated at a low density (2×10^4 cells per cm^2) onto poly-D lysine-coated 24-well plates. After 24 h, the adherent PC12 cells were washed with PBS and incubated with conditioned medium derived from either untreated or Ganoderma lucidum-treated astrocyte cultures to monitor neurite outgrowth (using a low serum condition in DMEM containing 1% FBS). Eight to ten images per group were photographed under light microscopy, and the percentage of cells with neurites that exceeded (the percentage of cells with neurites exceeding) the diameter of cell body was analyzed by examining 100-200 cells per image. Images were analyzed by an operator blinded to the experimental conditions. For the preparation of ACM, astrocytes were treated with Ganoderma lucidum for 24 hours and were washed with PBS and fed with low serum medium (without Ganoderma lucidum). After 24 hours, the medium was centrifuged at 200×g for 20 mins to remove cell debris, and the supernatant was collected as the ACM and used immediately. Murine NGF 100 ng/ml (Promega Biotech Co., Ltd, USA) was used as positive control.

[2] = test system: NGF; test: NGF expression and release in primary astrocyte cultures (RT-PCR, real time PCR, western blot); format: cell-based, C57BL/6J mice; details: primary astrocytes, 6 hours
Description: Astrocyte-enriched cultures were prepared from post-natal one day-old C57BL/6J mice obtained from the Animal Center at the National Yang Ming University, Taiwan. Briefly, cortical tissue was digested with trypsin. The resultant dissociated cells were suspended in DMEM containing 10% FBS and incubated in 100-mm culture dishes. After 3 days in culture, cells were re-fed with fresh 10% FBS/DMEM and maintained at 37° C. for an additional 3 days. The cells were dissociated with trypsin, suspended in 10% FBS/DMEM and incubated in a 10-cm dish for 7-8 days prior to use. Astrocytes prepared by this method consisted of approximately 90-95% astrocytes as determined by immunochemical staining with an antibody against glial fibrillary acidic protein (GFAP), a specific marker for astrocytes. Neural stem cell cultures were prepared from 1 day-old C57BL/6J mice. Cells obtained by trypsinization of cortical tissue were suspended in 100 ml DMEM/F12 medium (2×10^5 cells/ml) containing 1% N2, 20 ng/ml EGF, 20 ng/ml bFGF and […] BSA in 1 L roller bottles for 7 days for the formation of neurospheres. The neurospheres were examined with an antibody against nestin, a specific marker for neural stem cells. […]
RNA was prepared using RNA-Bee™ RNA isolation reagent (Tel-test, Friendswood, Tex.). […] Relative gene expression levels were calculated with the 2^−ΔΔCT method. […]

[3] = test system: mHtt74Q-expressing PC12 cell; test: mHtt-74Q aggregation in HD cell model by FACS analysis of EGFP fluorescence; format: cell-based
Description: (§1) Mammalian expression vectors comprising EGFP (pEGFP-C1, Clontech) fused at its C terminus with an HD gene exon 1 fragment with 74 polyglutamine repeats (mHtt-74Q) was a gift from Dr. David C. Rubinsztein's laboratory. The PC12 stable cells were maintained in 100 µg/ml hygromycin in standard medium consisting of DMEM with 100 U/ml penicillin/streptomycin, 2 mM L-glutamine, 10% heat-inactivated horse serum, 5% FBS and 200 ug/ml G418 at 37° C., 5% CO2. The cells were seeded at 2×10^5 per well in 12-well plates and were induced expression of mHtt-74Q with 200 ng/ml doxycycline for 24 h. The expression of transgenes was switched off by removing doxycycline from the medium. […] They were either fixed with 1% paraformaldehyde for 20 mins for FACS analysis (BD Biosciences) of EGFP fluorescence of mHtt-74Q followed by analysis of mean fluorescence intensity of 10,000 events by Cellquest software (BD Biosciences) or processed for real time PCR analysis. […] The samples were mounted and analyzed using a fluorescence microscope (Olympus IX-70 and POT2, USA) with excitation wave of 335 nm and emission of 525 nm. The intensity of the color staining reflected the level of autophagic activity, which was measured with an Image-Pro Plus Analysis system (Media Cybernetics, Bethesda, USA). To quantify MDC punctae, at least 4 random fields were imaged and the average number of punctae area per cell was calculated.

[4] = test system: mHtt74Q-expressing PC12 cell; test: Autophagy in HD cell model: MDC staining and western blot of LC3-II; format: cell-based
Description: as §1, with “calculated. […]” for “calculated.”

| Molecule | neurite outgrowth activity [1] | NGF mRNA expression [2] | mHtt-74Q accumulation ([3]; HD cell model, FACS analysis) | fluorescence distribution of cells expressing mHtt-74Q (aggregates) ([3]; NGF 50 ng/ml) | MDC intensity [4] | autophagic activity (MDC staining, LC3-II western blot) [4] |
| --- | --- | --- | --- | --- | --- | --- |
| Ganoderic acid C2 | particularly marked | particularly marked |  |  |  |  |
| B1 |  |  | reduction in mHtt-74Q accumulation | reduced aggregates | enhanced MDC stain | up-regulated |

Reference: patent US20140147464A1, “METHOD AND COMPOSITION FOR INDUCING AUTOPHAGY” (NATIONAL YANG-MING UNIVERSITY, priority 2012, published 2014)
